According to the RNAGym collection of RNA variant scans (doi:10.1073/pnas.2313332121):

B1: TPR t1 (parent)
chain: GACCAAUCUGCCCUCAGAGCUCGAGAACAUCUUCGGAUGCAGAGGAGGCAGGCUUCGGUGGCGCGAUAGCGCCAACGUCCUCAACCUCCAAUGCAUCCCACCACAUGAUGAUGCCUGAAGAGCCUUGGUUUUUUG

Variants of: B1
Experiment: polymerase ribozyme fitness, log enrichment relative to wild type (log ratio); higher = more active; in vitro selection for triplet polymerase activity
In short: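 Mutant libraries of both subunits of a heterodimeric triplet polymerase ribozyme were PCR-built, transcribed, and selected once in triplicate, with frozen incubation at −7 °C and capture of gel-excised extended constructs on streptavidin beads before RT-PCR. Illumina sequencing of input and output libraries was filtered to genotypes with ≥10 input reads and ≥1 read per output. Fitness is the logarithm of genotype enrichment over wild-type enrichment, using inverse-variance-weighted replicate averages. The logarithm is base 2.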

| Variant | polymerase ribozyme fitness (log ratio) |
| --- | --- |
| C15U U32C | -1.42 |
| A16U C40U C82U | -2.7 |
| A16U A26U | -4.8 |
| C15U A43U C72G C88U A91C G120C | -1.58 |
| A16G C53G G58A A91C A119U | -4.1 |
| C15U | -1.37 |
| C15U G39A C98U | -3.87 |
| A16G G36U G69C A121U | -1.25 |
| C15U A84U U87A A105G G113U | -5.89 |
| A16C G61C G69U U81A G120C | -3.32 |
| C15U G19U C124G | -2.54 |
| A16U A84U A100U C124A U129G | -0.308 |
| A16U C53G | -1.82 |
| A16C C101A G120A | -3.59 |
| C15U U96A | -1.57 |
| C15U G36A G69U C72U | -1.55 |
| A16U A50G G60U C97G U125A | -7.95 |
| C15U A50U C73U A118U G127A | -5.35 |
| C15G G39U C72A | -3.5 |
| A16G G61A A74C U78G U112A | -4.17 |
| C15U G47C G48U C62G A100U C124U | -5.24 |
| C15G U112G G122A | -1.95 |
| A16U C40A A100U | -3.86 |
| C15U A41U A90C C115G | -4.18 |

| Variant | polymerase ribozyme fitness (log ratio) |
| --- | --- |
| C15U C70U | -1.7 |
| A16C A18C C40U G71U C79U | -5.22 |
| A16G A18C U54G | -0.225 |
| C15U G35A A66U U109A U116A | -5.44 |
| C15U C70U U81A G113A G117A | -4.22 |
| A16G C72G U129G | -2.89 |
| C15G U38C C124G | 0.313 |
| A16C U55G C123G | -0.307 |
| C15U A43U A84C | -2.66 |
| C15U C114U | -2.91 |
| A16U A26G C56U C88U C124G | -1.25 |
| A16U A37U C56G | -3.71 |
| C15U C99U | -3.99 |
| C15U C64U G117U G120A | -1.73 |
| C15U A41U G69C C82A U112A C124A | -3.69 |
| A16U C73U A83U A95C | -2.3 |
| C15U C49A C62U U116A A121C U131G | -3.93 |
| C15G G71A A90G | -3.09 |
| A16C C73U C115G | -3.06 |
| A16U C20A C62U A83C G120A | -6.31 |
| A16G A50U | -2.5 |
| C15U C56A C72A C79G | -2.96 |
| A16U C53G U59C U96G U112A G128C | -3.81 |
| C15G U109A G120U C123A | -6.64 |

| Variant | polymerase ribozyme fitness (log ratio) |
| --- | --- |
| C15U G23U G47A C49U C62U G65A A111C | -6.66 |
| A16C U132A | -2.47 |
| A16U C123A U125A | -0.935 |
| C15U A18U C31A G39U U54A C72U C114U C115G | -6.25 |
| A16U C40U C73G | -2.11 |
| C15U C28U C72G U96C | -3.94 |
| A16U C40A U54C G60A | -2.69 |
| A16G G77A A111G G113A A118G | -3.63 |
| A16G A37U G71U A90G | -1.9 |
| C15U C70G C97U | -3.09 |
| A16U G17A C49U G57U A90U | -5.5 |
| C15G G25U C34G G60C U109G | -6.48 |
| A16G G57C C98U U112A G128C | -5.3 |
| A16U A29U G36A A43C G44U C53A G63C U112C | -5.08 |
| C15U G77A U87G U125A | -2.39 |
| C15U G71C | -1.05 |
| C15U G71A | -2.11 |
| A16C U109A U116G | -6.51 |
| C15G G61U U78C C101A | -3.49 |
| C15U G58A C79U | -2.08 |
| A16C C124G | 1 |
| A16G G63U | -1.65 |
| A16U C70U | -1.98 |
| C15U C20A G42A C124A U130C | -2.95 |

| Variant | polymerase ribozyme fitness (log ratio) |
| --- | --- |
| A16C U112G | -2.88 |
| A16G U109C | -5.19 |
| A16U C56U | -1.86 |
| A16G U21C G48A A100C C123A | -4.34 |
| A16G A27U | -4.63 |
| C15U G17U A91G C98U A111C | -6.3 |
| A16C C53A C56A G60A | -4.12 |
| A16G G60A G120C | -0.306 |
| C15U G48U A103C C123G | -6.34 |
| A16U C89G C123G | -1.67 |
| C15U G39C C94U C115U C123A G135U | -5.48 |
| C15U A26U | -5.06 |
| A16C A90C | -4.52 |
| C15U C72A | -1.07 |
| C15U G36C A50C C72U C124G | -0.154 |
| A16U A37C C73G U112C U133G | -1.75 |
| C15U G60A A91C | -2.6 |
| C15U C73A U78A C86G | -2.43 |
| A16C C64U U78C U87A G113U U116A | -7.76 |
| A16U C89G U130C | -2.31 |
| A16U C28U G71U | -3.34 |
| C15U C34A G60C C76U C82G A105G G113U | -6.4 |
| C15U C40U C114A | -4.3 |
| A16G A91U G113U | -2.28 |

| Variant | polymerase ribozyme fitness (log ratio) |
| --- | --- |
| C15U U21C G110A U130G | -4.32 |
| C15U C20A C72U C86U | -3.76 |
| A16C C56G A121C | -1.27 |
| C15U A111C U130A | -1.29 |
| A16C G44C C73A C86U G120U | -2.98 |
| C15U A90U | -2.96 |
| C15U C72A G110U | -2.17 |
| C15U G128C | -3.18 |
| C15U A37G C70U A100U A121C C123U | -1.4 |
| A16U C31U | -4.77 |
| A16U C70A U116C U130G | -2.69 |
| C15G G48C C85U G122A | -3.3 |
| C15U C76A U87A C101G | -4 |
| C15U G23C A27U G45C G113C | -6.21 |
| C15G C104U U132A | -1.67 |
| C15U U78A C86G | -3.29 |
| C15U A100C | -2.86 |
| C15G U32C C49U U87G | -3.89 |
| A16G C62A C97U | -3.6 |
| C15U C56A C62A G110C | -6.04 |
| A16G G60A | -1.26 |
| A16U C49A A121U U129G | -0.0419 |
| C15U A37G C53G U129C | -2.67 |
| C15U A43C G69A | -4.44 |

| Variant | polymerase ribozyme fitness (log ratio) |
| --- | --- |
| A16U A41G G44A G117C | -4.44 |
| A16U A105C G120U | -3.61 |
| C15U G45A C56A G77C C88G G117C C123U | -4.21 |
| A16G G48C G60A | -1.87 |
| C15U G45C G117A | -1.11 |
| C15U G117C | -2.96 |
| C15U G117U | -3.29 |
| A16U A26G C88U C124G | -1.11 |
| C15U A43C | -2.99 |
| C15G G45C C53U A91U | -5.56 |
| C15U C72U G110C | -5.35 |
| A16G A29U C40A G61U | -4.63 |
| A16G G39A C115A | -2.22 |
| A16U C82G U87A | -3.81 |
| C15G U32C G36C C49G U59C G120C | -4.02 |
| C15U C85A C124U G128C U133G | -4.88 |
| C15U G110A | -2.25 |
| C15U U78G C114U | -4.55 |
| C15U U54A A105U U112C | -2.79 |
| A16U A37U C97U | -5.8 |
| C15G G19A C73U U112A G122U | -3.84 |
| C15U A84C | -1.68 |
| C15U U33G C88G C115G | -6.42 |
| C15G C73G C88U U116G | -3.52 |

| Variant | polymerase ribozyme fitness (log ratio) |
| --- | --- |
| C15G U132A | -2.31 |
| C15U U78C C79G C124G U131A | 0.897 |
| C15G U78G C115U U126A | -2.34 |
| C15U G52A C62U A74U A83U U132A | -3.97 |
| C15G G44U | -3.71 |
| C15U C53U C97U | -1.96 |
| C15U U59G C70U C104A | -4.32 |
| C15G G63U U96A C99U G117U | -5.62 |
| C15G C82G G117U U130C | -0.86 |
| A16C C22U | -5.8 |
| C15U C49U U55G C73U | -1.56 |
| A16G A50U C53A G63U A100C C114G A121C | -7.46 |
| C15G G36A A100C C124G | -3.29 |
| C15U G61U A91G A121C U126A | -4.05 |
| C15U C62U | -1.95 |
| C15U C62A | -2.1 |
| A16U A37G | -2.1 |
| A16U A37U | -2.13 |
| A16G G93A | -2.61 |
| A16U C56G G63U C101U | -4.93 |
| A16C U33C C62G U81A A108G G120A C123G | -6.36 |
| C15U A74C A75G C115A | -3.69 |
| A16U A46C C94U G120C | -0.971 |
